Laboratory results reported in patent US20240400696A1.
Where a chain is given by its changes, count along the chain named.

B1: AC3434 (bispecific antibody, V domains shown)
VH: EVQLLESGGGIVQPGGSLKLSCAASGFTFNTYAMNWVRQAPGKGLEWVARIRSKYNNYATYYADSVKDRFTISRDDSKNTVYLQMNNLKTEDTAVYYCVRHENFGNSYVSWFAHWGQGTLVTVSS
VL: ELVVTQEPSLTVSPGGTVTLTCRSSNGAVTSSNYANWVQQKPGQAPRGLIGGTNKRAPGTPARFSGSLLEGKAALTLSGVQPEDEAVYYCALWYPNLWVFGGGTKLTVL
B2: AC3437 (bispecific antibody, V domains shown)
VH: B1 VH
VL: B1 VL with L68K, E70G
B3: AC3373 (bispecific antibody, V domains shown)
VH: B1 VH with V48T
VL: B1 VL with E70G
B4: AC3400 (bispecific antibody, V domains shown)
VH: B1 VH with Y55G
VL: B1 VL with E70G
B5: AC3374 (bispecific antibody, V domains shown)
VH: B1 VH with V48W
VL: B1 VL with E70G
B6: AC3398 (bispecific antibody, V domains shown)
VH: B1 VH with Y55A
VL: B1 VL with E70G
B7: AC3389 (bispecific antibody, V domains shown)
VH: B1 VH with R52Q
VL: B1 VL with E70G
B8: AC3397 (bispecific antibody, V domains shown)
VH: B1 VH with K54P
VL: B1 VL with E70G
B9: AC3396 (bispecific antibody, V domains shown)
VH: B1 VH with S53T
VL: B1 VL with E70G
B10: AC3401 (bispecific antibody, V domains shown)
VH: B1 VH with Y55K
VL: B1 VL with E70G
B11: AC3368 (bispecific antibody, V domains shown)
VH: B1 VH with W47E
VL: B1 VL with E70G
B12: AC3385 (bispecific antibody, V domains shown)
VH: B1 VH with I51T
VL: B1 VL with E70G
B13: AC3436 (bispecific antibody, V domains shown)
VH: B1 VH
VL: B1 VL with L68S, E70G
B14: AC3399 (bispecific antibody, V domains shown)
VH: B1 VH with Y55R
VL: B1 VL with E70G
B15: AC3377 (bispecific antibody, V domains shown)
VH: B1 VH with A49G
VL: B1 VL with E70G
B16: AC3370 (bispecific antibody, V domains shown)
VH: B1 VH with V48E
VL: B1 VL with E70G
B17: AC3367 (bispecific antibody, V domains shown)
VH: B1 VH with W47D
VL: B1 VL with E70G
B18: AC3439 (bispecific antibody, V domains shown)
VH: B1 VH
VL: B1 VL with L68T, E70G
B19: AC3435 (bispecific antibody, V domains shown)
VH: B1 VH
VL: B1 VL with L69D, E70G
B20: AC3383 (bispecific antibody, V domains shown)
VH: B1 VH with I51A
VL: B1 VL with E70G
B21: AC3372 (bispecific antibody, V domains shown)
VH: B1 VH with V48S
VL: B1 VL with E70G
B22: AC3369 (bispecific antibody, V domains shown)
VH: B1 VH with V48A
VL: B1 VL with E70G
B23: AC3438 (bispecific antibody, V domains shown)
VH: B1 VH
VL: B1 VL with L68N, E70G
B24: AC3371 (bispecific antibody, V domains shown)
VH: B1 VH with V48G
VL: B1 VL with E70G

What follows are binders tested against CD3 (assay: Octet, crude lysate).
CD3, sequence (P07766 23-126): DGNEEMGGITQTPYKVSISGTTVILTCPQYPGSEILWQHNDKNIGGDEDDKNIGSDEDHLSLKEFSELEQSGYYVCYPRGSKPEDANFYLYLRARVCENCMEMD

| Binder | Kd [nM] |
| --- | --- |
| B1 | 4.9 |
| B2 | 3.2 |
| B3 | 5.7 |
| B4 | 20.1 |
| B5 | 34300 |
| B6 | 11.5 |
| B7 | 434 |
| B8 | 51 |
| B9 | 4.8 |
| B10 | 5.1 |
| B11 | 18.1 |
| B12 | 425 |
| B13 | 7.3 |
| B14 | 3.8 |
| B15 | 4.5 |
| B16 | 165 |
| B17 | 40.2 |
| B18 | 8.9 |
| B19 | 6.1 |
| B20 | 1180 |
| B21 | 11.2 |
| B22 | 8.3 |
| B23 | 8.3 |
| B24 | 71.5 |
